# Paper PMC6651182, “Importance of the Choice of a Recombinant System to Produce Large Amounts of Functional Membrane Protein hERG” (International Journal of Molecular Sciences, 2019)
# How the values were obtained:
# [1] = biological target: hERG(S1-coil) (Homo sapiens, UniProt Q12809); assay: Two-electrode voltage clamp in Xenopus oocytes, inhibition of hERG(S1-coil) tail current; conditions: mean ± SEM, n = 8
# Protocol: (§1) (A). Current-voltage relationship for hERG-wt and hERG(S1-coil). Currents measured at the end of a 4 seconds long depolarizing pulse (from −70 to 30 mV) were normalized to the maximal current for hERG-wt (n = 21) and hERG(S1-coil) (n = 19). (B). Steady-state voltage-dependence of activation. […] (C).
# (§2) Stage V–VI oocytes were removed from female Xenopus under tricaine anaesthesia. […] After intensive washing with OR2 solution, oocytes were injected with RNA preparation (about 30 nL per oocyte) and recorded 2–5 days after injection. Currents were recorded at room temperature using the two-electrode voltage clamp method. Electrodes were pulled from borosilicate glass and filled with 3 M KCl. Currents were measured by a Geneclamp 500 amplifier (Molecular Devices, San Jose, CA, USA) and digitized by a Digidata 1200 converter (Molecular Devices) using Clampex 5 software (Molecular Devices). […] We determined the concentration to obtain the half maximal inhibition (IC50) by measuring the peak tail current recorded during the second pulse at −50 mV in the presence of increasing concentrations of inhibitor and normalized the value to the current measured in the absence of inhibitor. […] The significance of the difference between two results was determined using the unpaired Student’s test set at the 0.01 level.
# [2] = biological target: hERG-wt (Homo sapiens, UniProt Q12809); assay: Two-electrode voltage clamp in Xenopus oocytes, inhibition of hERG-wt tail current; conditions: mean ± SEM, n = 7
# Protocol: as §1, §2
# [3] = biological target: T1, hERG(S1-coil) (Homo sapiens, UniProt Q12809, N598Q); assay: Electrophysiology on planar lipid bilayers with purified hERG(S1-coil) (stable HEK, DDM); assay type: biochemical; conditions: samples pre-incubated with 10 µM toxin; lipid bilayer; data not shown
# T1 construct: hERG(362-675) + coiled-coil
# Protocol: Crude membranes prepared from P. pastoris, Sf9 or stable HEK cells expressing hERG(S1-coil) were solubilized in 50 mM HEPES, pH 7.5, 300 mM KCl containing 1% DPC or DDM and 0.2% cholesteryl-hemisuccinate (CHS, Sigma Aldrich) at slow rotation at +4 °C for 1 h. Samples were centrifuged at 25,000 g for 15 min at +4 °C. […] After transferring to a column and washing the resin with 15 CV of 50 mM HEPES, pH 7.5, 300 mM KCl, 50 mM imidazole, 0.1% (w/v) DPC and 0.02% (w/v) CHS, hERG(S1-coil) was eluted with 250 mM imidazole in the same buffer. For purification of hERG(S1-coil) overexpressed in Sf9 cells in DPC, the supernatant was diluted 2-fold in 50 mM HEPES, pH 7.5 and transferred to a Strep-Tactin column (Strep-TactinSuperflow, IBA, Göttingen, Germany) at a ratio of 1 mL resin for 100 mL supernatant. […] Purified samples were analysed by SDS-PAGE and Western blot and protein concentrations determined by BCA assay.
# Planar lipid bilayers were formed at room temperature by painting a solution of azolectin (Type IVS, Sigma Aldrich) at 45 mg/mL in decane across a 200 µm aperture in a polysulfonate cup (Warner Instruments, Hamden, CT, USA) separating two chambers. […] A total of 500 ng of chimeric hERG protein was added in the cis chamber and the resulting channel activity recorded for at least 2 min. […]
substance,measurement,setting,value
"BeKm-1 (RPTDIKCSESYQCFPVCKSRFGKTNGRCVNGFCDCF; UniProt Q9BKB7 22-57, looked up)",IC50,[1],24.9 ± 3.77 nM
same,IC50,[2],21.7 ± 2.76 nM
same,current at −100 mV,[3],did not have any current
